In patent US20060115839A1 (published 2006):

Target: endogenous histone H3 in U2OS cells (human, UniProt P68431 2-136)
Test: formaldehyde crosslinking in irradiated U2OS cells, nickel bead capture, H3 immunoblot (FIG. 3g)
Protocol: Non-transfected U2OS osteosarcoma cells and transfected U2OS cells expressing His-tagged GFP-53BP1 fusion proteins with wild-type or mutant (Asp1521Arg) 53BP1 sequences were pre-extracted with Triton-X100 in situ 15 min after irradiation and then treated with formaldehyde to crosslink interacting proteins. His-tagged GFP-53BP1 was then affinity-purified on nickel-coated beads and bound histone H3 was detected by immunoblotting after the crosslinks were reversed by boiling. Histone H3 was captured on beads incubated with extracts from His-tagged GFP-wild-type 53BP1 expressing cells treated with formaldehyde, but not on beads incubated with extracts from cells that were mock-crosslinked or that were expressing the Asp1521Arg mutant protein (FIG. 3g). Further, the crosslinking was specific for histone H3, because histone H2A, although present in the Triton-X100 insoluble material, was not captured by the beads (data not shown).
Proteins were crosslinked with formaldehyde³⁰. Parental U2OS cells and U2OS cells expressing N-terminally His-tagged GFP-53BP1 fusion proteins containing residues 1220-1711 of 53BP1 were exposed to 9 Gy IR. […] Histone H3 was detected by immunoblotting after the crosslinks were reversed by boiling.

binding result: no binding
B1: N-terminally His-tagged GFP-53BP1 fusion protein containing residues 1220-1711 of 53BP1 with Asp1521Arg (other)
chain: QGEEEFDMPQPPHGHVLHRHMRTIREVRTLVTRVITDVYYVDGTEVERKVTEETEEPIVECQECETEVSPSQTGGSSGDLGDISSFSSKASSLHRTSSGTSLSAMHSSGSSGKGAGPLRGKTSGTEPADFALPSSRGGPGKLSPRKGVSQTGTPVCEEDGDAGLGIRQGGKAPVTPRGRGRRGRPPSRTTGTRETAVPGPLGIEDISPNLSPDDKSFSRVVPRVPDSTRRTDVGAGALRRSDSPEIPFQAAAGPSDGLDASSPGNSFVGLRVVAKWSSNGYFYSGKITRDVGAGKYKLLFDRGYECDVLGKDILLCDPIPLDTEVTALSEDEYFSAGVVKGHRKESGELYYSIEKEGQRKWYKRMAVILSLEQGNRLREQYGLGPYEAVTPLTKAADISLDNLVEGKRKRRSNVSSPATPTASSSSSTTPTRKITESPRASMGVLSGKRKLITSEEERSPAKRGRKSATVKPGAVGAGEFVSPCESGDNTGE
notes: Expressed in U2OS cells; crosslinked in situ with formaldehyde; also called His-tagged GFP-53BP1 D1521R; Asp1521Arg mutant protein; not shown: N-terminal His tag and GFP, with any linkers
